From patent US6682911 (GENERAL HOSPITAL, dated 2004) come the findings set out here.

The assay has as its target T1, human laminin β1 subunit (human, UniProt P07942 22-1786).
T1 construct: 185 kDa chain from laminin 12 isolated from human placental chorionic villi, reduced and resolved by SDS-PAGE; also called 185 kDa band; 185 kDa chain
The assay is described as follows: trimer isolated from placenta; non-reducing then reducing SDS-PAGE and peptide sequencing of the chains. From the text:
Protein sequencing was done according to Aebersold et al. (1987). The complex laminin 5-laminin 7 was run on a polyacrylamide gel in the presence of 2-mercaptoethanol and blotted onto a nitrocellulose membrane (Biorad). The 190 kDa band of β2 and the 165 kDa α3 band were separately excised and digested by protease trypsin. The digested product was separated by HPLC and one fragment was sequenced on an Applied Biosystems sequenator (Applied Biosystems, Foster City, Calif.). The 205 kDa chain contained a sequence identical to human laminin α2, and was thus identified as human laminin α2 subunit. The 185 kDa produced two peptides identical to human β1, and was thus identified as human laminin β1 subunit. The band at 170 kDa contained three sequences not contained in any known laminin chain. A N-terminal sequence of the 170 kDa chain was also determined. In addition, the N-terminal sequence was not identical to any known laminin sequence.

T1 sequence (P07942 22-1786 Q1022R limits assumed): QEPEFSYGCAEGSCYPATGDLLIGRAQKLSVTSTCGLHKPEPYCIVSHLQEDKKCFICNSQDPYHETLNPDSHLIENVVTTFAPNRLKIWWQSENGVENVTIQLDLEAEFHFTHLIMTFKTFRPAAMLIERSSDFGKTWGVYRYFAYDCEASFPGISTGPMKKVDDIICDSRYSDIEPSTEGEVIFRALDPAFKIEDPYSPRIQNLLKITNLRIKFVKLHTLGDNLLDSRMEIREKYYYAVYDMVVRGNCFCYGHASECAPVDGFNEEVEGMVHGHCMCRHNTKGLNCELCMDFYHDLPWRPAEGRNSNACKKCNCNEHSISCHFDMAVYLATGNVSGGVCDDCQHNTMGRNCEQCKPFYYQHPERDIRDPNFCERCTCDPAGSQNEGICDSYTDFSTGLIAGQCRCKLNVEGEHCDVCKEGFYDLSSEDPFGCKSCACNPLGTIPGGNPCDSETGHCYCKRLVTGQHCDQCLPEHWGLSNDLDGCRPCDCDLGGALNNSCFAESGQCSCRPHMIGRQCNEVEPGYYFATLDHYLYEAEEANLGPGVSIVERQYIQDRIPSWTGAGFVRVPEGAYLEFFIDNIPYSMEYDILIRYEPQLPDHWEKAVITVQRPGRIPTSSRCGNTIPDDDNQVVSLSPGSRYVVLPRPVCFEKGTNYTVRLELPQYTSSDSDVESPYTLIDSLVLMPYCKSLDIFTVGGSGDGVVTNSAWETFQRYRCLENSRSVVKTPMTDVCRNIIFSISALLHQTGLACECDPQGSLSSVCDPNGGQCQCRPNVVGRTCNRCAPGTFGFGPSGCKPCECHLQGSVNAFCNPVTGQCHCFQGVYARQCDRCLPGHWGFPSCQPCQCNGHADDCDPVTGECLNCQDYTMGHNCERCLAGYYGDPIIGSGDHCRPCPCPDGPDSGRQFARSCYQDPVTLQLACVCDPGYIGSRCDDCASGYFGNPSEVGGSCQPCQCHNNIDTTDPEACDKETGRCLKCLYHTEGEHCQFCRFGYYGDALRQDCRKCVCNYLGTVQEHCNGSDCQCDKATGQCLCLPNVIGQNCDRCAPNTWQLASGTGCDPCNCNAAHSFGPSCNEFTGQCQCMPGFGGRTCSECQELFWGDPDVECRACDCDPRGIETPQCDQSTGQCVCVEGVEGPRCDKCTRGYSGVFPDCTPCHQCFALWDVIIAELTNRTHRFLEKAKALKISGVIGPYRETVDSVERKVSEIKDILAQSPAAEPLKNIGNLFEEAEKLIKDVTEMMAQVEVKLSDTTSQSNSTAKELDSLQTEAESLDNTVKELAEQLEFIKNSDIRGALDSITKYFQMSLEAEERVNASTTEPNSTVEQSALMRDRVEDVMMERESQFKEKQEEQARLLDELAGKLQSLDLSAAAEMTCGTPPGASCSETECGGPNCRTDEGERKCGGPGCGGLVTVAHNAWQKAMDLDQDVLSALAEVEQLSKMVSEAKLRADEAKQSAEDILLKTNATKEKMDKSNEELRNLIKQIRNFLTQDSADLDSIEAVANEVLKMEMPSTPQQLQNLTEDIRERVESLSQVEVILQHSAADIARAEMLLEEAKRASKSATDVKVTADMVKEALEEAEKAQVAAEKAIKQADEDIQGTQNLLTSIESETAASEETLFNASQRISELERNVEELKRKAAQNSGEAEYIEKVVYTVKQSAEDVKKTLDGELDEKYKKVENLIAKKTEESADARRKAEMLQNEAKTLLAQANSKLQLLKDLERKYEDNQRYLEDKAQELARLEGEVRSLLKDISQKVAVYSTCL

B1: human laminin γ3 subunit (other)
chain: AGMGACYDGAGRPQRCLPVFENAAFGRLAQASHTCGSPPEDFCPHVGAAGAGAHCQRCDAADPQRHHNASYLTDFHSQDESTWWQSPSMAFGVQYPTSVNITLRLGKAYEITYVRLKFHTSRPESFAIYKRSRADGPWEPYQFYSASCQKTYGRPEGQYLRPGEDERVAFCTSEFSDISPLSGGNVAFSTLEGRPSAYNFEESPGLQEWVTSTELLISLDRLNTFGDDIFKDPKVLQSYYYAVSDFSVGGRCKCNGHASECGPDVAGQLACRCQHNTTGTDCERCLPFFQDRPWARGTAEAAHECLPCNCSGRSEECTFDRELFRSTGHGGRCHHCRDHTAGPHCERCQENFYHWDPRMPCQPCDCQSAGSLHLQCDDTGTCACKPTVTGWKCDRCLPGFHSLSEGGCRPCTCNPAGSLDTCDPRSGRCPCKENVEGNLCDRCRPGTFNLQPHNPAGCSSCFCYGHSKVCASTAQFQVHHILSDFHQGAEGWWARSVGGSEHSPQWSPNGVLLSPEDEEELTAPGKFLGDQRFSYGQPLILTFRVPPGDSPLPVQLRLEGTGLALSLRHSSLSGPQDARASQGGRAQVPLQETSEDVAPPLPPFHFQRLLANLTSLRLRVSPGPSPAGPVFLTEVRLTSARPGLSPPASWVEICSCPTGYTGQFCESCAPGYKREMPQGGPYASCVPCTCNQHGTCDPNTGICVCSHHTEGPSCERCLPGFYGNPFAGQADDCQPCPCPGQSACTTIPESGEVVCTHCPPGQRGRRCEVCDDGFFGDPLGLFGHPQPCHQCQCSGNVDPNAVGNCDPLSGHCLRCLHNTTGDHCEHCQEGFYGSALAPRPADKCMPCSCHPQGSVSEQMPCDPVTGQCSCLPHVTARDCSRCYPGFFDLQPGRGCRSCKCHPLGSQEDQCHPKTGQCTCRPGVTGQACDRCQLGFFGSSIKGCRACRCSPLGAASAQCHYNGTCVCRPGFEGYKCDRCHYNFFLTADGTHCQQCPSCYALVKEETAKLKARLTLTEGWLQGSDCGSPWGPLDILLGEAPRGDVYQGHHLLPGAREAFLEQMMGLEGAVKAAREQLQRLNKGARCAQAGSQKTCTQLADLEAVLESSEEEILHAAAILASLEIPQEGPSQPTKWSHLAIEARALARSHRDTATKIAATAWRALLASNTSYALLWNLLEGRVALETQRDLEDRYQEVQAAQKALRTAVAEVLPEAESVLATVQQVGADTAPYLALLASPGALPQKSRAEDLGLKAKALEKTVASWQHMATEAARTLQTAAQATLRQTEPLTMARSRLTATFASQLHQGARAALTQASSSVQAATVTVMGARTLLADLEGMKLQFPRPKDQAALQRKADSVSDRLLADTRKKTKQAERMLGNAAPLSSSAKKKGREAEVLAKDSAKLAKALLRERKQAHRRASRLTSQTQATLQQASQQVLASEARRQELEEAERVGAGLSEMEQQIRESRISLEKDIETLSELLARLGSLDTHQAPAQALNETQWALERLRLQLGSPGSLQRKLSLLEQESQQQELQIQGFESDLAEIRADKQNLEAILHSLPENCASWQ
notes: 170 kDa chain from laminin 12 isolated from human placental chorionic villi, reduced and resolved by SDS-PAGE; also called 170 kDa γ3 chain; 170 kDa band
As to B1, the binding result is recorded as “binds”.
